Measured values from publication PMC8365315 (EBioMedicine, 2021).

Molecular target: exportin 4 (XPO4) (UniProt Q9C0E2 1-1151)
Test: SPR

Sequence of exportin 4 (XPO4) (Q9C0E2 whole entry): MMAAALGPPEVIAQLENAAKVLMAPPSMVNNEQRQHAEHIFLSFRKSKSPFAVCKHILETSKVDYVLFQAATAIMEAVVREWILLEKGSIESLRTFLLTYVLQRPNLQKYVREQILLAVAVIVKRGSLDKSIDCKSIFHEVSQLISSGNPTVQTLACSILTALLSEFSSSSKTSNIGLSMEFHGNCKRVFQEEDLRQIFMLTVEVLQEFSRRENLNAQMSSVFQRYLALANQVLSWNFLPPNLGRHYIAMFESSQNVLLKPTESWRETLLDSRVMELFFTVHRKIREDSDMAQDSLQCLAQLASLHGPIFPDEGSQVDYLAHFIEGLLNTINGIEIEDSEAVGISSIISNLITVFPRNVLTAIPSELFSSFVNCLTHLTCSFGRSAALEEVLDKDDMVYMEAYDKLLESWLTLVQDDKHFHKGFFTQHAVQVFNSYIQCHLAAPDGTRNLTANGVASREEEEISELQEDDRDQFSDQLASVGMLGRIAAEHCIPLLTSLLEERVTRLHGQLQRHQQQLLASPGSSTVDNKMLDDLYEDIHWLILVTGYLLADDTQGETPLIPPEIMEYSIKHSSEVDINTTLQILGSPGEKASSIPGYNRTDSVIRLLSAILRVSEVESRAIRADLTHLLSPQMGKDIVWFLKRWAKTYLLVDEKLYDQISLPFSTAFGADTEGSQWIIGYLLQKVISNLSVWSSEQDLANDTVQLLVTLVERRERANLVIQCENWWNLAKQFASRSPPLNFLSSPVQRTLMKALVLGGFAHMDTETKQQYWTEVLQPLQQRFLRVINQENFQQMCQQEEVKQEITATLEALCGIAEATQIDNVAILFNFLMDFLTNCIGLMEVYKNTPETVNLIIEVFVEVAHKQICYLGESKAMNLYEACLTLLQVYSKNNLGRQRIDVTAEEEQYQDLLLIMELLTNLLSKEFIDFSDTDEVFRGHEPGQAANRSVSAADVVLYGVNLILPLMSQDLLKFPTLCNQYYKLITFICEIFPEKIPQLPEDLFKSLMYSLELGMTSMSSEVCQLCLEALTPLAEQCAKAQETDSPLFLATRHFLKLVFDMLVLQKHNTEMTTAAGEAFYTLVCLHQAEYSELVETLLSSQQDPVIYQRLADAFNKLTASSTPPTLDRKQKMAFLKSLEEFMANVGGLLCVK

Kd: 4.88 nM
B1: SMAD3 (natural protein, UniProt P84022 1-425, looked up)
chain: MSSILPFTPPIVKRLLGWKKGEQNGQEEKWCEKAVKSLVKKLKKTGQLDELEKAITTQNVNTKCITIPRSLDGRLQVSHRKGLPHVIYCRLWRWPDLHSHHELRAMELCEFAFNMKKDEVCVNPYHYQRVETPVLPPVLVPRHTEIPAEFPPLDDYSHSIPENTNFPAGIEPQSNIPETPPPGYLSEDGETSDHQMNHSMDAGSPNLSPNPMSPAHNNLDLQPVTYCEPAFWCSISYYELNQRVGETFHASQPSMTVDGFTDPSNSERFCLGLLSNVNRNAAVELTRRHIGRGVRLYYIGGEVFAECLSDSAIFVQSPNCNQRYGWHPATVCKIPPGCNLKIFNNQEFAALLAQSVNQGFEAVYQLTRMCTIRMSFVKGWGAEYRRQTVTSTPCWIELHLNGPLQWLDKVLTQMGSPSIRCSSVS
